pKd: −log10 of the molar value.
Target: FcRn
Assay: SPR (BIAcore) at pH 6.0

Chain of FcRn (P55899 24-297, chain 1 of 2): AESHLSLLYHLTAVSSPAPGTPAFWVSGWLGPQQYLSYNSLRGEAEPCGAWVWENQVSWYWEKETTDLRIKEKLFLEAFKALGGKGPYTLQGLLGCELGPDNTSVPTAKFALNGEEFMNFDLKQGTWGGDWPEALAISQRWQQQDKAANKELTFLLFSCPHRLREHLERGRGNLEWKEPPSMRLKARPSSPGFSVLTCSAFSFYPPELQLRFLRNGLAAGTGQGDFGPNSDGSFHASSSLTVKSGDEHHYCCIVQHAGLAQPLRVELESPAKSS
Chain of FcRn (P61769 21-119, chain 2 of 2, further chain): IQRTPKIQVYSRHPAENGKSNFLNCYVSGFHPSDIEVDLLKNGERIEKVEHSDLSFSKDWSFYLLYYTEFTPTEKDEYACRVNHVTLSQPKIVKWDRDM

Row | Substance | pKd
1 | Non-specific IgG1 (antibody) | 5.79
2 | Non-specific IgG4 (antibody) | 5.44

From patent US20240417458A1
